Substitutions are numbered along the chain they refer to.
T1: F457E
T1 construct: also called human CI-M6PR Dom1-3His6 F457E
T1 chain: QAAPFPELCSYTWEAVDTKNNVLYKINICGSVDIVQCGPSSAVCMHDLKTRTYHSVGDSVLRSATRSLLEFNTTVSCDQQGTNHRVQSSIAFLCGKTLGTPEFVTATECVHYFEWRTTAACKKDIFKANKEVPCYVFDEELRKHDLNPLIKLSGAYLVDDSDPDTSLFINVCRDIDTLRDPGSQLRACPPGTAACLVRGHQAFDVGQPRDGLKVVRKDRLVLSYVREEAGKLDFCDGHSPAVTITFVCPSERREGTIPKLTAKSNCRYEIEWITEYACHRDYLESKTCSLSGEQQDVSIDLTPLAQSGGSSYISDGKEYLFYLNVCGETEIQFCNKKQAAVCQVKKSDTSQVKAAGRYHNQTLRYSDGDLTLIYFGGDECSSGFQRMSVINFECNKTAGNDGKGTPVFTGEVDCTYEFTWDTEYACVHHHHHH

T2: E148R
T2 construct: also called human CI-M6PR Dom1-3His6 E148F
T2 chain: T1 chain with E108F, E417F

T3: M85E
T3 construct: also called human CI-M6PR Dom1-3His6 M85E
T3 chain: T1 chain with M45E, E417F

T4: D87L
T4 construct: also called human CI-M6PR Dom1-3His6 D87L
T4 chain: T1 chain with D47L, E417F

B1: anti-CI-M6PR VHH 1H11 (VHH)
VHH: QVQLQESGGGLVQPGGSLRLSCAASGIIFSDNRMDWYRQAPGKQREWVATLASYGWKTYADSVKDRFTISRDNAKNTVNLYMNSLQPEDTAVYYCNSGQYWGQGTQVTVSS
notes: made in E. coli WK6, His-tag purified
B2: anti-CI-M6PR VHH1 (VHH)
VHH: QVQLQESGGGLVQPGGSLRLSCVASGFTFDRYWMNWLRQIPGKEIEWVSTINTGGTGTYYDDSVKGRFSISRDDAKNTLYLTMNSLKTEDTAVYYCARGATYYRGNSAIRGQGTQVTVSS
notes: His6-tagged; made in Pichia pastoris, later also in E. coli WK6
B3: anti-CI-M6PR VHH5 (VHH)
VHH: QVQLQESGGGLVQAGGSLKLSCAAAGRTFSRLAMGWFRQAPGKEREFVAAISENGDSIHYSDSVKGRFAVSRDNAKNTVYLQMNSLKPEDTAIYYCAADRAAYYCSGSGCYPSRAPAAASYDYWGQGTQVTVSS
notes: as for B2
B4: anti-CI-M6PR VHH8 (VHH)
VHH: QVQLQESGGGLVQAGGSLRLSCEASGRTFNTYNWGWFRQAPGKEREFVAAIRWSSSKTSYADSVKGRFTISRDNAKNTIYLQMNSLKPEDTAVYYCAASIVDFTTNPSHFGSWGQGTQVTVSS
notes: His6-tagged (Pichia pastoris)
B5: anti-CI-M6PR VHH7 (VHH)
VHH: QVQLQESGGGLVQPGGSLRLSCAASGIIFSDNRMDWYRQAPGKQREWVATLASYGWKTYADSVKGRFTISRDNTKNTVYLRMNSLKPEDTAVYYCKASSPVLNDIWGQGTQVTVSS
notes: His6-tagged (Pichia pastoris)

Experiments:
F457E = target: T1, F457E; test: ELISA on coated antigen (100 ng), anti-VHH-HRP, A450
Description: (§1) To determine the effect of site-directed mutations, an ELISA was performed. To this end, 100 ng of each successfully purified mutant was coated per well on Nunc Maxisorp plates in 50 mM MES, 150 mM NaCl, pH 6.5 buffer overnight at 4° C. […] Coating-only controls were included for background correction. […] Reactions were stopped after five minutes using a 2N H₂SO₄ solution and plates were read at 450 nm, with a 655 nm background correction. Data were analyzed using the GraphPad Prism 9 software.

E148R = target: T2, E148R; test: ELISA on coated antigen (100 ng; labelled E148R on the sheet, E148F in the text), anti-VHH-HRP, A450
Description: as §1

[1] = target: T5, recombinant human domain 1-3His6 of the cation-independent mannose-6-phosphate receptor (human, UniProt P11717 41-467); test: BLI exp 2, dissoc pH 6.5
T5 construct: Biotinylated (NHS-PEG4-biotin) for BLI; Glycosylated; also called hDom1-3His6; hCI-M6PRD1-D3

M85E = target: T3, M85E; test: ELISA on coated antigen (100 ng), anti-VHH-HRP, A450
Description: as §1

D87L = target: T4, D87L; test: as above
Description: as §1

[2] = target: T6, human cation-independent mannose-6-phosphate receptor, native, on cells (human, UniProt P11717 41-2491); test: flow cytometry, FLAG3-His6 VHH on HEK293T cells
T6 construct: whole, on cells; also called native CI-M6PR; cell-surface hCI-M6PR
Excerpt: Synthetic DNA fragments encoding VHHs were ordered (IDT, Leuven, Belgium) and subcloned into an E. coli expression vector under control of an IPTG-inducible lac promoter, in frame with N-terminal PelB signal peptide (which directs the recombinant proteins to the periplasmic compartment) and C-terminal FLAG3 and His6 tags. […] VHH proteins were purified from these clones by means of IMAC chromatography followed by desalting according to well established procedures¹⁰⁶. Cells used herein were recovered using cell dissociation non-enzymatic solution (Sigma Aldrich, cat. #C5914-100ML) and resuspended to a final concentration of 1,000,000 cells/mL in FACS buffer. Cells were incubated with different concentrations of purified FLAG3-tagged VHHs for 30 minutes on ice with shaking, followed by washing and incubation with mouse M2 anti-Flag mAb (Sigma Aldrich, cat. #F-1804) in FACS buffer for 30 min on ice with shaking, followed again by washing. […] Flow cytometry and analysis were done on an Attune NxT Flow Cytometer (Thermo Fisher Scientific).
Moreover, cross-reactivity to mouse CI-M6PR was analyzed, in view of the amino acid homology between mouse and human being overall about 80% identity, but for domain 1-3 of CI-M6PR just about 75% identity.

Binder | EC50 (read off the curve) (F457E) [nM] | EC50 (read off the curve) (E148R) [nM] | koff [1] [s⁻¹] | kon [1] [M⁻¹ s⁻¹] | EC50 (read off the curve) (M85E) [nM] | EC50 (read off the curve) (D87L) [nM] | EC50 [2] [nM]
B1 | ~0.4 | ~9 |  |  |  |  | 
B2 |  |  | 0.011 | 1.1e+06 |  |  | 
B3 |  | ~2 |  |  | ~2 | ~2 | 
B4 | ~10 | ~3 | 0.0007 | 1.2e+06 | ~3 | ~4 | 0.8
B5 |  |  | 0.02 | 430000 |  |  | 20

From patent US20250263490A1 (VIB VZW, published 2025)
